{"source": "patent US20200048350A1", "about": "(INHIBRX BIOSCIENCES, published 2020)", "binders": {"B1": {"name": "cx5187 (other)", "chain 1": "EVQLVESGGGEVQPGGSLRLSCAASGFSFSSNVMMWVRQAPGKGLEWVSTIYSSGTGTFYAESVKGRFTISRDNAKNTLYLQMSSLRPEDTAVYYCATSGPVRGWGPRSQGTLVTVKPPGGGGDKTHTCPPCPAPGGPSVFLFPPKPKDTLMISRTPEVTCVVVDVSHEDPEVKFNWYVDGVEVHNAKTKPREEQYNSTYRVVSVLTVLHQDWLNGKEYKCKVSNKALPAPIEKTISKAKGQPREPQVYTLPPCRDELTKNQVSLWCLVKGFYPSDIAVEWESNGQPENNYKTTPPVLDSDGSFFLYSKLTVDKSRWQQGNVFSCSVMHEALHNHYTQKSLSLSPTGGGGGSGGGGGSGGGGGSEVQLVESGGGLVQPGGSLRLSCAASGFTFNTYAMNWVRQAPGKCLEWVARIRSKYNNYATYYADSVKGRFTISRDDAKNTLYLQMSSLRAEDTAVYYCVRHGNFGNSYVSWFAYWGQGTLVTVKPGGGGEVQLVESGGGEVQPGGSLRLSCAASGFTFSSYHMSWFRQAPGKQREPVATSHHGGTTNYAGSVKGRFTISRDNAKNTVYLQMNTLRAEDTAVYYCKADHGYQGRGYWGQGTLVTVKP", "chain 2": "DKTHTCPPCPAPGGPSVFLFPPKPKDTLMISRTPEVTCVVVDVSHEDPEVKFNWYVDGVEVHNAKTKPREEQYNSTYRVVSVLTVLHQDWLNGKEYKCKVSNKALPAPIEKTISKAKGQPREPQVCTLPPSRDELTKNQVSLSCAVKGFYPSDIAVEWESNGQPENNYKTTPPVLDSDGSFFLVSKLTVDKSRWQQGNVFSCSVMHEALHNRYTQKSLSLSPTGGGGGSGGGGGSGGGGGSQAVVTQEPSLTVSPGGTVTLTCGSSTGAVTTSNYANWVQQKPGQAFRGLIGGTNKRAPGVPARFSGSLLGGKAALTISGAQPEDEADYYCALWYSNHWVFGCGTKLEIKGGGGEVQLLESGGGEVQPGGSLRLSCAASGFSFSINAMGWYRQAPGKRREFVAAIESGRNTVYAESVKGRFTISRDNAKNTVYLQMSSLRAEDTAVYYCGLLKGNRVVSPSVAYWGQGTLVTVKP", "notes": "hole 91, 93 or 296, differing at the C-terminal end; the first is written; also called bivalent, bi-epitopic B7H3-targeted constrained CD3 engaging construct; Knob-VH"}, "B2": {"name": "cx5873 (other)", "chain 1": "DKTHTCPPCPAPGGPSVFLFPPKPKDTLMISRTPEVTCVVVDVSHEDPEVKFNWYVDGVEVHNAKTKPREEQYNSTYRVVSVLTVLHQDWLNGKEYKCKVSNKALPAPIEKTISKAKGQPREPQVYTLPPCRDELTKNQVSLWCLVKGFYPSDIAVEWESNGQPENNYKTTPPVLDSDGSFFLYSKLTVDKSRWQQGNVFSCSVMHEALHNHYTQKSLSLSPTGGGGGSGGGGGSGGGGGSEVQLVESGGGLVQPGGSLRLSCAASGFTFNTYAMNWVRQAPGKCLEWVARIRSKYNNYATYYADSVKGRFTISRDDAKNTLYLQMSSLRAEDTAVYYCVRHGNFGNSYVSWFAYWGQGTLVTVKPGGGGEVQLVESGGGEVQPGGSLRLSCAASGFTFSSYHMSWFRQAPGKQREPVATSHHGGTTNYAGSVKGRFTISRDNAKNTVYLQMNTLRAEDTAVYYCKADHGYQGRGYWGQGTLVTVKP", "chain 2": "B1 chain 2", "notes": "Fc alternatives printed; first written; Short peptide linkers only 'e.g.'; also called monovalent B7H3-targeting constrained CD3 engaging construct (C-terminal sdAb)"}, "B3": {"name": "cx5965 (other)", "chain 1": "EVQLVESGGGEVQPGGSLRLSCAASGFSFSSNVMMWVRQAPGKGLEWVSTIYSSGTGTFYAESVKGRFTISRDNAKNTLYLQMSSLRPEDTAVYYCATSGPVRGWGPRSQGTLVTVKPPGGGGDKTHTCPPCPAPGGPSVFLFPPKPKDTLMISRTPEVTCVVVDVSHEDPEVKFNWYVDGVEVHNAKTKPREEQYNSTYRVVSVLTVLHQDWLNGKEYKCKVSNKALPAPIEKTISKAKGQPREPQVYTLPPCRDELTKNQVSLWCLVKGFYPSDIAVEWESNGQPENNYKTTPPVLDSDGSFFLYSKLTVDKSRWQQGNVFSCSVMHEALHNHYTQKSLSLSPTGGGGGSGGGGGSGGGGGSEVQLVESGGGLVQPGGSLRLSCAASGFTFNTYAMNWVRQAPGKCLEWVARIRSKYNNYATYYADSVKGRFTISRDDAKNTLYLQMSSLRAEDTAVYYCVRHGNFGNSYVSWFAYWGQGTLVTVKP", "chain 2": "B1 chain 2", "notes": "Fc alternatives printed; first written; Short peptide linkers only 'e.g.'; also called monovalent B7H3-targeting constrained CD3 engaging construct (N-terminal sdAb)"}, "B4": {"name": "cx5352 (other)", "chain 1": "EVQLVESGGGEVQPGGSLRLSCAASGSIFSINAMGWYRQAPGKQRELVAGFTGDTNTIYAESVKGRFTISRDNAKNTVYLQMSSLRAEDTAVYYCAADVQLFSRDYEFYWGQGTLVTVKPPGGGGDKTHTCPPCPAPGGPSVFLFPPKPKDTLMISRTPEVTCVVVDVSHEDPEVKFNWYVDGVEVHNAKTKPREEQYNSTYRVVSVLTVLHQDWLNGKEYKCKVSNKALPAPIEKTISKAKGQPREPQVYTLPPCRDELTKNQVSLWCLVKGFYPSDIAVEWESNGQPENNYKTTPPVLDSDGSFFLYSKLTVDKSRWQQGNVFSCSVMHEALHNHYTQKSLSLSPTGGGGGSGGGGGSGGGGGSEVQLVESGGGLVQPGGSLRLSCAASGFTFNTYAMNWVRQAPGKCLEWVARIRSKYNNYATYYADSVKGRFTISRDDAKNTLYLQMSSLRAEDTAVYYCVRHGNFGNSYVSWFAYWGQGTLVTVKPGGGGEVQLVESGGGEVQPGGSLRLSCGPSEIITSDKSMGWVRQAPGKQRNLVAGISNVGSTNYAQSVKGRFTISRDNAKNTVYLQMSSLRAEDTAVYYCYARDFENEYWGQGTLVTVKP", "chain 2": "B1 chain 2", "notes": "Fc alternatives printed; first written; Short peptide linkers only 'e.g.'"}, "B5": {"name": "cx5800 (other)", "chain 1": "EVQLVESGGGEVQPGGSLRLSCAASGSIFSINAMGWYRQAPGKQRELVAGFTGDTNTIYAESVKGRFTISRDNAKNTVYLQMSSLRAEDTAVYYCAADVQLFSRDYEFYWGQGTLVTVKPPGGGGDKTHTCPPCPAPGGPSVFLFPPKPKDTLMISRTPEVTCVVVDVSHEDPEVKFNWYVDGVEVHNAKTKPREEQYNSTYRVVSVLTVLHQDWLNGKEYKCKVSNKALPAPIEKTISKAKGQPREPQVYTLPPCRDELTKNQVSLWCLVKGFYPSDIAVEWESNGQPENNYKTTPPVLDSDGSFFLYSKLTVDKSRWQQGNVFSCSVMHEALHNHYTQKSLSLSPTGGGGGSGGGGGSGGGGGSEVQLVESGGGLVQPGGSLRLSCAASGFTFNTYAMNWVRQAPGKCLEWVARIRSKYNNYATYYADSVKGRFTISRDDAKNTLYLQMSSLRAEDTAVYYCVRHGNFGNSYVSWFAYWGQGTLVTVKP", "chain 2": "B1 chain 2", "notes": "Fc alternatives printed; first written; Short peptide linkers only 'e.g.'; also called monovalent DLL3-targeted constrained CD3 engaging construct (N-terminal sdAb)"}, "B6": {"name": "cx5801 (other)", "chain 1": "DKTHTCPPCPAPGGPSVFLFPPKPKDTLMISRTPEVTCVVVDVSHEDPEVKFNWYVDGVEVHNAKTKPREEQYNSTYRVVSVLTVLHQDWLNGKEYKCKVSNKALPAPIEKTISKAKGQPREPQVYTLPPCRDELTKNQVSLWCLVKGFYPSDIAVEWESNGQPENNYKTTPPVLDSDGSFFLYSKLTVDKSRWQQGNVFSCSVMHEALHNHYTQKSLSLSPTGGGGGSGGGGGSGGGGGSEVQLVESGGGLVQPGGSLRLSCAASGFTFNTYAMNWVRQAPGKCLEWVARIRSKYNNYATYYADSVKGRFTISRDDAKNTLYLQMSSLRAEDTAVYYCVRHGNFGNSYVSWFAYWGQGTLVTVKPGGGGEVQLVESGGGEVQPGGSLRLSCGPSEIITSDKSMGWVRQAPGKQRNLVAGISNVGSTNYAQSVKGRFTISRDNAKNTVYLQMSSLRAEDTAVYYCYARDFENEYWGQGTLVTVKP", "chain 2": "B1 chain 2", "notes": "Fc alternatives printed; first written; Short peptide linkers only 'e.g.'; also called monovalent DLL3-targeted constrained CD3 engaging construct (C-terminal sdAb)"}, "B7": {"name": "cx5823 (other)", "chain 1": "B1 chain 1 with T346G, P540L", "chain 2": "B1 chain 2 with T223G", "notes": "Short peptide linkers only 'e.g.'; also called bivalent B7H3-targeting constrained CD3 engaging construct"}}, "note": "Numbering of substitutions follows the chain as printed.", "data": [{"target": "T1, B7H3 (UniProt Q5ZPR3 29-534, limits assumed)", "T1 construct": "whole, on cells; also called CD276", "T1 sequence (looked up)": "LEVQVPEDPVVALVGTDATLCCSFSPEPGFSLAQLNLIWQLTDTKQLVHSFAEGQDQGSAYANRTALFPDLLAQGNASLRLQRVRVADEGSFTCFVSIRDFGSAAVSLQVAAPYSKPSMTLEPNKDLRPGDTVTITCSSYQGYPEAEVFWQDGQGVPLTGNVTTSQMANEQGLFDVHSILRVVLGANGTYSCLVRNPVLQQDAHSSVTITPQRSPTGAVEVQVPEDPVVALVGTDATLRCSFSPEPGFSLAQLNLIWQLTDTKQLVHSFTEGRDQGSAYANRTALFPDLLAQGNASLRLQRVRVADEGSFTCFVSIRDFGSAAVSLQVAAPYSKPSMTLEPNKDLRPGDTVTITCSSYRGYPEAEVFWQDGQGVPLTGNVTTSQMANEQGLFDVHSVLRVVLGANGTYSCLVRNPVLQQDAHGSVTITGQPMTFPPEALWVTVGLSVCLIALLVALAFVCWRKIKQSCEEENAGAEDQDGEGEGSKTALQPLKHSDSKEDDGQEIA", "assay": "cell binding assay on A375 cells", "values": [{"binder": "B1", "binding result": "binds"}, {"binder": "B2", "binding result": "binds"}, {"binder": "B3", "binding result": "binds"}]}, {"target": "T2, CD3 (human, UniProt P07766 23-207)", "T2 construct": "whole, on cells; CD3 is a multi-chain complex; also called CD3ε; CD3 on the surface of primary T cells", "T2 sequence (P07766 23-207)": "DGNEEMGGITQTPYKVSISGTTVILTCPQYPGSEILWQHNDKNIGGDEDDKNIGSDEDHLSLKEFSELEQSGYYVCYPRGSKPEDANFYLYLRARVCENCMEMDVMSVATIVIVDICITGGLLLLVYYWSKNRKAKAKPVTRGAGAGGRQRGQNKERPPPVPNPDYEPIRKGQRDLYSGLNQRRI", "assay": "flow cytometry on primary T cells, anti-human IgG Fc secondary", "method": "(§1) Binding of exemplary multispecific constructs containing an antigen-binding domain directed against DLL3 were assessed for binding to DLL3 positive SHP-77 tumor cells or primary T-cells. […] These binding assays were conducted by flow cytometry, wherein bound constructs were detected using a fluorophore-conjugated anti-human IgG Fc secondary antibody.", "values": [{"binder": "B4", "binding result": "no binding"}, {"binder": "B5", "binding result": "no binding"}, {"binder": "B6", "binding result": "no binding"}]}, {"target": "T3, DLL3 (human, UniProt Q9NYJ7 27-618)", "T3 construct": "also called Delta-like 3; Human DLL3", "T3 sequence": "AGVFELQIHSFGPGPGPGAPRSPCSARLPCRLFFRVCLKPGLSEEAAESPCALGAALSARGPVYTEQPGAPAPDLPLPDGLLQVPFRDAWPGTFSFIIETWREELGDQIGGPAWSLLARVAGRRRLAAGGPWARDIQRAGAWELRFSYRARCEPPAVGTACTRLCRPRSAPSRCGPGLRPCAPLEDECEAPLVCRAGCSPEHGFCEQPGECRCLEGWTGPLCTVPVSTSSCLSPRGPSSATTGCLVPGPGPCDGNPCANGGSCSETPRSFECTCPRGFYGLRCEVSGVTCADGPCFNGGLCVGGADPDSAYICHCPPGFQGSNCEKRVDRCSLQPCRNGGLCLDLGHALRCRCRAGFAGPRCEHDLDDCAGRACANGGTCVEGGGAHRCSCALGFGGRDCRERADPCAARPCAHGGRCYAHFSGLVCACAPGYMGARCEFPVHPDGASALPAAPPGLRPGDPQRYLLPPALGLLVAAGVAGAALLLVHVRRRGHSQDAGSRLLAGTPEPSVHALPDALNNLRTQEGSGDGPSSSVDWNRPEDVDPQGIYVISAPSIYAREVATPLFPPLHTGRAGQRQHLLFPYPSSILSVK", "assay": "flow cytometry on SHP-77 cells, anti-human IgG Fc secondary", "method": "as §1", "values": [{"binder": "B4", "binding result": "binds"}, {"binder": "B5", "binding result": "binds"}, {"binder": "B6", "binding result": "binds"}]}, {"target": "T2, CD3", "assay": "cell binding assay on isolated primary T cells", "values": [{"binder": "B1", "binding result": "no binding"}, {"binder": "B2", "binding result": "no binding"}, {"binder": "B3", "binding result": "no binding"}, {"binder": "B7", "binding result": "no binding"}]}]}
